In one assay the target is T1, Chimera #4 (Homo sapiens (Human), UniProt P49961 1-510).
T1 construct: Expressed on CHO cells
T1 chain: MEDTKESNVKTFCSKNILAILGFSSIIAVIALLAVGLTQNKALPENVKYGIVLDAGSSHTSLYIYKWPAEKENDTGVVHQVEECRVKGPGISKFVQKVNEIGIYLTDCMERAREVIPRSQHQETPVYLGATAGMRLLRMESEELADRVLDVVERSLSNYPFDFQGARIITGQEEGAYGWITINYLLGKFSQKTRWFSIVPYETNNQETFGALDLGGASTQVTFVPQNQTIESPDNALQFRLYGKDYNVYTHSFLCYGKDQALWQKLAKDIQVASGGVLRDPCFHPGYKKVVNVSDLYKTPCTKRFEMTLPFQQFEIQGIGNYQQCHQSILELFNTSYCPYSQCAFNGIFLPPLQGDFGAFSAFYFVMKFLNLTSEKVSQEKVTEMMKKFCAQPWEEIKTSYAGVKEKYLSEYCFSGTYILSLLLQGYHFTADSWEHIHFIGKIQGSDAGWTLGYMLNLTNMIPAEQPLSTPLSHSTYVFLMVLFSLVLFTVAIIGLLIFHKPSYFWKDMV
Briefly: FACS on CHO cells, 15 ug/ml; human M1-S274 + mouse GGV + human L278-V510.

The next assay has as its target T2, Chimera #2 (human, UniProt P49961 1-510).
T2 construct: Expressed on CHO cells; also called human-mouse Chimera #2
T2 chain: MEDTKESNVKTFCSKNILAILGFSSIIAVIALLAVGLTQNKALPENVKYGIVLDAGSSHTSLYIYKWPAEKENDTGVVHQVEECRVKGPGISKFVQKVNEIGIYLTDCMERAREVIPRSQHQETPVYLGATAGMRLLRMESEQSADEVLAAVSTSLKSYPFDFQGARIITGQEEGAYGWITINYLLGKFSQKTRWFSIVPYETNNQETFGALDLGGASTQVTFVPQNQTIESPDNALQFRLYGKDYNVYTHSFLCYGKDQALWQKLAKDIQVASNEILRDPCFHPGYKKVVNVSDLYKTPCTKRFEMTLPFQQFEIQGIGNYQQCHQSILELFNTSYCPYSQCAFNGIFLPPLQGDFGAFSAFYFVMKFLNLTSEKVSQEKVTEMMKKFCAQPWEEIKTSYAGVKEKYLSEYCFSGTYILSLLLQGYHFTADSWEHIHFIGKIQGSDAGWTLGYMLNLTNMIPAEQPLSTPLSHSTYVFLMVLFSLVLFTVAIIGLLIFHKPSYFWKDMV
Briefly: FACS on CHO cells; human M1-E142 + mouse Q143-S158 ([..]) + human Y159-V510.

Assay [1] concerns the target T3, cynomolgus macaque (Macaca fascicularis) CD39 (Macaca fascicularis, UniProt P49961 7-510 (human entry)).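 Further: antibodies bound to the cells for 30 min in PBS, then bound IgG was revealed with a fluorescent goat anti-human IgG secondary antibody, 20 min on ice.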
T3 construct: On engineered CHO cells and on primary cyno B cells and monocytes; also called cyno CD39; cCD39
T3 chain: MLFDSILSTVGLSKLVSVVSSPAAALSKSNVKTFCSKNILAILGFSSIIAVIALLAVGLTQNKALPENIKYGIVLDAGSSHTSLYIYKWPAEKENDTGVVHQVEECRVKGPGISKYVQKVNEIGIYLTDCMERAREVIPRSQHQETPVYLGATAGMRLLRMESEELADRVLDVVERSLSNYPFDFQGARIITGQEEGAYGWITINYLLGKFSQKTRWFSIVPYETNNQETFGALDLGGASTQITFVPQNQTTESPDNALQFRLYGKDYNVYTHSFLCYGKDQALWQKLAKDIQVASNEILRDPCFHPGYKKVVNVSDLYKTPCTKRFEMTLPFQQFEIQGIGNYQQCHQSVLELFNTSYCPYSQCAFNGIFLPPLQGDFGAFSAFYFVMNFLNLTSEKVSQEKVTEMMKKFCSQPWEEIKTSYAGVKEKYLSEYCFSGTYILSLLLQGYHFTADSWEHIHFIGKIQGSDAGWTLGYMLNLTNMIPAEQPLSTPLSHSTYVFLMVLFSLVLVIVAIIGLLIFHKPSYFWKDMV
Briefly: flow cytometry, 100 nM IgG, MFI on CHO-cCD39 / MFI on parental CHO. (In general: Flow cytometry measures light scatter and fluorescence of single cells or particles in a stream.)

The next assay concerns the target T4, Chimera #10 (Homo sapiens (Human), UniProt P49961 1-510).
T4 construct: Expressed on CHO cells
T4 chain: T2 chain with S153E
Briefly: FACS on CHO cells, 15 ug/ml; Chimera 2 with human E153 ([..]).

The target of a further assay is T5, Chimera #9 (Homo sapiens (Human), UniProt P49961 1-510).
T5 construct: Expressed on CHO cells
T5 chain: T2 chain with A150D
Briefly: FACS on CHO cells, 15 ug/ml; Chimera 2 with human D150 ([..]).

In the next assay the target is T6, human CD39 (cellular) (human, UniProt P49961 1-510).
T6 construct: Same protein on engineered CHO cells and on cells that express it endogenously; also called hCD39; cellular CD39
T6 sequence: T1 chain with G275N, G276E, V277I
Briefly: flow cytometry, 100 nM IgG, MFI on CHO-hCD39 / MFI on parental CHO.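 Further: cells exposed to IgG for 30 min on ice in PBS, bound antibody then revealed with a fluorescent goat anti-human IgG secondary (20 min, on ice).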

Numbering of substitutions follows the chain as printed.

B1: 31418 (antibody, human IgG4 S228P, kappa, V domains shown)
VH: QVQLVQSGAEVKKPGASVKVSCKASGYTFKSYEMHWVRQAPGQGLEWMGRINPSGGSTWYAQKFQGRVTMTRDTSTSTVYMELSSLRSEDTAVYYCARGKREGGTEYLRHWGQGTLVTVSS
VL: EIVLTQSPGTLSLSPGERATLSCRASQSVSSSYLAWYQQKPGQAPRLLIYGASSRATGIPDRFSGSGSGTDFTLTISRLEPEDFAVYYCQQYYFYITFGGGTKVEIKR
Turning to B1, the binding result is “binds” with Chimera #4, “no binding (tested: 15 ug/ml)” with Chimera #2, “binds” with Chimera #10 and “binds” with Chimera #9. Moreover, the “Cell Binding (FOB)” value in assay [1] was determined as 3180 fold over background; with human CD39 (cellular), 1080 fold over background.

The values above are taken from US20210403593A1 (TIZONA THERAPEUTICS, published 2021).
